# Results published in the nanobody polyreactivity screen of Harvey et al. (2022).
# Experiment: yeast display, Sf9 membrane polyspecificity reagent, FACS + sequencing; frameworks hold sequencing errors
# Procedure, shortened: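 Galactose induction of a Saccharomyces cerevisiae BJ5465 synthetic nanobody display library ran 36–48 hours. The cells were then stained for 1 hour at 4 °C with 10% biotinylated, detergent-solubilized Sf9 membrane reagent, pulled down on streptavidin microbeads and FACS-sorted into low and high (top ~1%) gates on expression and reagent-binding fluorescence. Labels for polyreactivity follow the gate of origin.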
row,Sequence,polyreactivity (PSR sort gate)
1,QVQLVESGGGLVQAGGSLRLSCASSGYILRSNAMVWYRQAPGKEREFVAAITYSGGTTYYADSVKGRFTISRDNAKNTVYLQMNSLKPEDTAVYYCNADYGYYKLDYWGQGTQVTVSS,low polyreactivity
2,QVQLVESAGGLVQAGGSLRLSCAASGFIFVKYVMGWYRQEPGKERELVATISNGVSTNYADSVKGRFTISRDNAKNTVYLQMNSLKPEDTAVYDCNTGSNAWYFSGDYWGQGTQVTVSS,low polyreactivity
3,QVQLVESGGGLVQAGGSLRLSCAASGRNFPLNAMGWYRQAPWKERELVAAISIGGSTYYADSVKGRFTISRDNPKNTVYLQMNSLKPDETAVYYCAAVWYTSRQKYDYWGQGTQVTVSS,low polyreactivity
4,QVQLVESGGGLVQAGGSLRLSCAASGGTFVYNAMGWNRQAPGKERELVAAISRSGSRTYYADSVKGRFTISRDNAKNTVYLQMNSLKPEDTAVYYCAARGYYPEYNHWGQGSQVTVSS,high polyreactivity
5,QVQLVESGGGLVQAGGSLRLSCAASGLIFYSYAMGWYRQAHAKERELVAAITGGGSTNYADSVKGRFTISRDNAKNTVYLQMNSLKPEDTAVYYCAAQAYVEGVYRYDYWGQGTQVTVSS,low polyreactivity
6,QVQLVESGGGLVQAGGSLRLSCAASGRIFYYNAMGWYRQAPGKERELVAAITRTGGSTYYADSVKGRFTISRDNAKNTVYLQMNSLKPEDTAVYYCAAYGGRDIRFEYWGQGTQVTVSS,high polyreactivity
7,QVQLVESGGGLVQAGGSLRLSCAASGSIFVSYAMVWYRQAPGKERELVAAITRSGGSTYYADSVKGRFTISRDNAKNTVYLQMNSLKPEDTAVYYCAARSYLGAYRRYYWGQGTQVTVSS,high polyreactivity
8,QFQLVESGGGLVQAGGSLRLSCAASGFIFKPYTMGWYRQAPGKERELVATITFSGGSTYYADSVKGRFTISLDNAQNTVYLQMNSLNPEDTAVYYCADPRYYRGYSIFDYLGQGTQVTVSS,low polyreactivity
9,QVQIVESGRGLVQAGGSLRLSCAASGRIFYNDLMGWYRQAPGKERELVASISTGGTTYYSDSVKGRFTISRDNAKNTVYLQMNSLKPEDTAVYYCNAGLFYAPPFYTMDYWGQGTQVTVSS,low polyreactivity
10,QVQLVESGGGLVQAGGSLRLSCAASGSIFRGNAMGWYRQAPGKERELVAAITRSGGRTYYADSVKGRFTISRDNANNTVYLQMNCLKPEDTAVYFCAADYPYGSPTHFDYWGQGTQVTVSS,high polyreactivity
11,QVQLVESGGGLVQAGGSLRLSCAASGSIFVDYAMGWSRQAPGKERELVAAITSGGRTNYADSVKGRFTISRDNAKNTVYLQMNSLKPEDTAVYYCNKTRYTNYYTTTFDYWGQGTQVTVSS,low polyreactivity
12,QVQLVESGGGLVQAGGSLRLSCAASGSTFTTNAMGWYRQAPGKERELVAAISSGGRTYYADSVKGRFTISRDNAKNTVYLQMNRLKPEDTAVYYCAAEIYYSIYQGSRFYYRGQGTQVTVSS,high polyreactivity
13,QVQLVESGGGLVQAGGSLRLSCAASGSIFYEYAMGWYRKAPGKEREFVAAISSSGGSTYYADSVKGRFTISRDNAKNTVYLQMNSLKPEDTAVYYCATQSSVLSWWYDYWGQGTQVTVSS,low polyreactivity
14,QVQLVESGGGLVQARGSLRLSCAASGSTFGRYVMGWYRQAPGKERELVAAISKNAGSTYYADSVKGRFTISRDNAKNTVYLQMTSLKPEDTAVYYCAADWRTKGYDSLGQGTQVTVSS,high polyreactivity
15,QVQLVESGGGLVQAGGSLRLSCAASGFIFYTYAMGWYRQAPGKERELVAAISWNGGSTNYADSVKGRFTISRDNAKNTDYLQMNSLKPEDTAVYYCAARSVSTLRYTSRKLRYDYWGQGTQVTVSS,high polyreactivity
16,QVQLVESGGGLVQAGGSLRLSCAASGFTFGFNAMGWYRQAPGKEREFVASITYRGGSTYYADSVKGRFTISRDNAKNTVYLQMNSLKPEDTAVYYCAAASPWRRYISDYWGQGTQVTVSS,high polyreactivity
17,QVQLVESGGGLVQAGGSLRLSCAASGRTFGQNAMGWYRQAPGKERELVASIRSGGITDYADSVKGRFTISRDNAKNTVYLQMNSLKPEDTAVYYCNAEGVWWSTRYDSWGQGTQVTVSS,low polyreactivity
18,QVKLVESGGGLVQAGGSLRLSCAASGFIFAHYAMGWYRQAPGKERELVAAIRGGDGSTDYADSVKGRFTISRDNAKNTVYLQMNSLIPEDTAVYYCAKRGKRSRGVGGNYWGQGTQVTVSS,low polyreactivity
19,QVQLVESGGGLVQAGGSLRLSCAASGRIFQWNAMGWYRQAPGKERELVAAITYSGSSTNYADSVKGRFTISRDNAKNTVYLQMNSLKPEDTAVFYCNRDFYQYLSYFWHYGYWGQGTQVTVSS,low polyreactivity
20,QVQLVESGGGLVQAGGSLRLSCAASGRIFYFNAMGWYRQAPGKEREFVASINSIGDSTYYADSVKGRFTISRDNAKNTVYLHMNSLKPEDTAVYYCNADHGVINYRLDYWGQGTQVTVSS,low polyreactivity
21,QVQLVESGGGLVQAVGSLLLSCAASGSTFRYNAMGWYRQAPGKEREFVATISWTTGSSYYADSVKGRFTISRDNAKNTVYLQLNSLKPEDTAFYFCAADASLFSDFRDYDYWGQGTQVPVSS,low polyreactivity
22,QVQLVESGGGLVQAGGSLRLSCAASGRTFYLNAMGWYRQAPGKERELVAAIRFSGGSTYYADSVKGRFTISRDNAKNTVLLQMNSLKPEDTAVYYCNAGPYHSLYPTVSEYGYWGQGTQVTVSS,low polyreactivity

row,Sequence,polyreactivity (PSR sort gate)
1,QVQLVESGGGLDQAGGSLRLSCAASGFTFYSYVMGWYRQAPGKERELVAAITRGGSTYYADSVKGRFTISRDNAKNTVYLQMNSMKPDDTAVYYCAKRPSYGFNYWGQGTQVTVSS,low polyreactivity
2,QVQLVESGGGLVQAGGSLRLSCAASGRTFDGNAMGWYRQAPGKERELVAAISQGGGSTYYADSVKGRFTISRDNAKNTVYLQMNSLKPEDTAVYYCNAVGYTPRKPSKFDYWGQGTQVTVSS,low polyreactivity
3,QVQLVESGGGLVQAGGSLRLSCAASGSIFSFYAMGWSRQAPGKERELVASISYSGGTTFYADSVKGRFTISRDNAKNTVYLQMNSLKTEDTAVYYSAATCEPPQRGYVKDEFDYWGQVTQVTVSS,low polyreactivity
4,QVQLVESVGGLVQAGGSLRLSCAASGRIFVHYVMGWYRQAPGKERELVAAISRSGGRTYYADSVKGRFTISRDNAKNSVYLQMNSLKPEDTAVYYCATDASTYKYDYWGQGTQVTVSS,high polyreactivity
5,QVQLQDSGGGLVQAGGSLRLSCAASGTISDRAGMGWYRQAPAQNAIVATIDRGTNTNYADSVKGRFTISRDNAKNTVYLQMNSLKPEDTAVYNCAADGRYYIYLDYWGQGTQVTVSS,low polyreactivity
6,QVQLVESGGGLVQAGGSLRLSCAASGSTFYTHAMGWYRQAPGKERELVAAISASVGSTYYADSVKGRFTISRDNAKNTVYLQMNSLKPEDTAVYYCAADVWASRRYDYWGQGTQVTVSS,low polyreactivity
7,QVHLEESGGGLVQAGGSLRLSSAASGFTFRSNAMGWYRQAPGKERELVAAITSRGGSTYYADSVKGRFTISRDYAINTVYLQMNSLKPEDTAVYYGAADGRSRKFDYWGQGTQVTVSS,high polyreactivity
8,QVQLVESGGGLVQAGGSLRLSCAASGRTFYPYAMGWYRQAPGTERELVAAISRSGGGTYYADSVKGRFTISRDNAKNTVYLQMNSLKPEDTAVYYCAAARYLSIYNYWGQGTQVTVSS,low polyreactivity
9,QGQLVESGGGLVQAGGSLRISSAASGGNFPGNTMGWYRLAPGKESELVAAISNGVSTNYADSVKGGFTISRDNAKNTVYLQMNSQKPEDTAVYYCAAEWSWWDGEDYHFEYDYWGQGTQVTVSS,low polyreactivity
10,QVQLVESGGGLVQAGGILRLSCAASGSTLRTNAMGWYRQEPGKDRELVAAISTRGSSTYYADSVKGRFTISRDNAKNTVYLQMNSLQPEDTAVYYCNTAWGPRRGVNVAFDYWGQGTHVTVSS,low polyreactivity
11,QVQHVESGGGLVQAGGSLRLSCAASGRTFTPYAMGWYRQAPGKEREFVAAISIVGRTKYADSVKGRFTISRDNAKNTVYLQMNSLKPEDTAVYYCNAQDSRDRKFYWGYTRGHWGQGTQVTVSS,low polyreactivity
12,QVQLVESGGGLVQAGGSLRLSCAASGRTFLRYTMGWYRQAPGKERELVASITRGGSTYYADSVKGRFTISRDNAKNTVYLQMNSLKPEDTAVYYCAVDVYGSHYYTGSLGKPDGYWGQGTQVTVSS,high polyreactivity
13,QVQLVESGGGLVQAGGSLRLSCAASGRIFDLNAMGWYRQAPGKERELVAAITWSGDSTYYADSVKGRFTISRDNAKNTVYLQMNSLKPEDTAVYYCAAASRTSYSWVDYEFDYWGQGTQVTVSS,low polyreactivity
14,QVQLGESGGGLVQAGGSIRLSCAASGRTFYGYAMGWYRQAPGTERELVAAISYSGARTYYADSVKGRFTISRDNAKHTVNLQMNSLKPEDTAVYYCAATRAYWIGHLDYWGQGTQVTVSS,high polyreactivity
15,QVQLVESGGALVQAGGSLRLSSAASGSTFYLNAMGWYRQAPGKERELVAAITVSGGSTYYADSVKGRFTISRDNAKNTVYLQMNSLKPEDTAVYYCARELLSPTYQRWYYYWGQGTQVTVSS,low polyreactivity
16,QVQLVESGGGLVQAGGTLRLSCAASGSTFGGYAMGLYRQAPGKERELVAAITWSGDTYYADSVKGRFTISRDNAKNSVYLQMNSLKPEDTAVYYCAAYSRVGPYRYAYWGQGTQVTVSS,high polyreactivity
17,QVQLVESGGGVVQAGGSLRLSCAASGRIFVRNAMGWYRQAPGKERELVAAISRSGGSTSYADSVKGRFTISRDNAKTTVYLQMNSLKPEDTAVYDCAARYARYQYQYDYWGQGTQVTVSS,high polyreactivity
18,QVQLVESGGGLVQAGGSLRLSCAASGRIFGQYAMGWYRQAPGKERELVAAITYSTGSTSYADSVKGRFTISRDNAKNTVYLQMNSLKPEDTAVYYCATRKPSVRGVIPTRNSYYYWGQGTQVTVSS,high polyreactivity
19,QVQLVESGGGLVQAGGSLRLSCAASGSTFFEYAMGWYRQAPGKVREFVAGISWSGGITYYADSVKGRFTISRDNAKNTVYLQMNSLKPEDTAVYYCATAGGDWYGVDYWGQGTQVTVSS,low polyreactivity
20,QVQLVESGVGLVQAGGSLSLSCAPSGSTFTSYAMGWYRQAPGKEMELVAAITSRRGTYYADSVKGRFTISRDNAKNTVYLEMTSLKPEVTAVYYCAARAPYKKYPYVKWYDYWGQGTQVTVSS,high polyreactivity
21,QVQLVESGGGLVQAGGSLRLSCAASGLTFRLNAMGWYRQAPGKERELVAAITSIADRTYYADSVKGRFTISRDNAKNTVYLQMNSLKPEDTAVYYCNVTPRRAQVRIGNYWGQGTQVTVSS,high polyreactivity
